Measurements as given in patent US20240166737A1.

How the values were obtained:
[1] = target: CD3 epsilon on human T-cells (human) (UniProt P07766); assay: T cell binding
recombinant CD3 = recombinant CD3 (UniProt P07766); assay: SPR
recombinant CD3, sequence (P07766 23-126): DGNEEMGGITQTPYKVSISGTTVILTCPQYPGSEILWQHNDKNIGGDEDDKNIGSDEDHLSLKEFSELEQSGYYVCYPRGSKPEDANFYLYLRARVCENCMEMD

CD3 epsilon on human T-cells (human), sequence (P07766 23-207 limits assumed): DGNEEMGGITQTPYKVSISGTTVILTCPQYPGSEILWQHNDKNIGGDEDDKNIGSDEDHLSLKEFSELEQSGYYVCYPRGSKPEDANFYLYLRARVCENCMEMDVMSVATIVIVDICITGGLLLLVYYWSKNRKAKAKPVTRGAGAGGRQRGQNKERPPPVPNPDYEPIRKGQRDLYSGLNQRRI

- EC50 [1]: > 300 nM
- Kd (recombinant CD3): 50 to 100 nM
B1: CD3B450-LH-ScFv (scFv, V domains shown, not shown: small tags and cut ends)
VH: QVQLQQSGPGLVKPSQTLSLTCAISGDSVFNNNAAWSWIRQSPSRGLEWLGRTYYRSKWLYDYAVSVKSRITINPDTSKNQFSLQLNSVTPEDTAVYYCARGYSSSFDYWGQGTLVTVSS
VL: QSALTQPASVSGSPGQSITISCTGTSSNIGTYKFVSWYQQHPGKAPKVMIYEVSKRPSGVSNRFSGSKSGNTASLTISGLQAEDEADYYCVSYAGSGTLLFGGGTKLTVL
